The text below walks through data of patent publication US20250066508A1 (SHENYANG SUNSHINE PHARMACEUTICAL, published 2025).

In one test the target is Human MASP-2 (human, UniProt O00187 16-686). The test can be described thus: cell-based or functional assay.
Another test addresses T1, MASP2-CCP1/2 (human, UniProt O00187 298-443).
T1 construct: also called CCP1/2 domain of MASP-2
The test can be described thus: ELISA, antigen coated 20 ng/well. Here is the method:
(§1) The enzyme-linked immunosorbent assay (ELISA) method used in the following examples is described as follows: the microplate was coated with the corresponding recombinant protein, and PBST containing 1% bovine serum albumin (PBST is phosphate buffer containing 0.05% Tween-20) was used to block the microplate. The antibody to be tested was serially diluted, then transferred to the above-mentioned microplate coated with recombinant protein, followed by incubation at room temperature for half an hour. After washing the plate, appropriately diluted HRP (Horseradish Peroxidase)-labeled goat anti-human antibody (Fc specific, purchased from Sigma) was added, followed by incubation at room temperature for half an hour. After washing the plate, 100 μl of chromogenic solution with TMB (3,3′,5,5′-Tetramethylbenzidine) was added as substrate to each well, followed by incubation at room temperature for 1 to 5 minutes. 50 μl stop solution (2M H₂SO₄) was added to stop the reaction. OD450 was read by a plate reader (SpectraMax 190). GraphPad Prism7 was used for graphing and data analyzing, and EC₅₀/IC₅₀ was calculated.
(ELISA stands for enzyme-linked immunosorbent assay.)

The target of test [1] is Mouse MASP2-CCP1/2-SP-RQSA (mouse, UniProt Q91WP0 298-685). The test can be described thus: ELISA, antigen coated 20 ng/well. Here is the method:
as §1

The target of the next test is Rat MASP2-CCP1/2-SP-RQSA (rat, UniProt Q9JJS8 298-685). The test can be described thus: ELISA, antigen coated 20 ng/well. Here is the method:
as §1

Test [2] deals with T2, Rhesus MASP2-CCP1/2-SP-RQSA (rhesus macaque, UniProt O00187 298-686 (human entry), limits assumed).
T2 construct: also called rhesus macaque MASP-2
T2 sequence (O00187 other isoform, or with tags, fused parts or gaps limits assumed): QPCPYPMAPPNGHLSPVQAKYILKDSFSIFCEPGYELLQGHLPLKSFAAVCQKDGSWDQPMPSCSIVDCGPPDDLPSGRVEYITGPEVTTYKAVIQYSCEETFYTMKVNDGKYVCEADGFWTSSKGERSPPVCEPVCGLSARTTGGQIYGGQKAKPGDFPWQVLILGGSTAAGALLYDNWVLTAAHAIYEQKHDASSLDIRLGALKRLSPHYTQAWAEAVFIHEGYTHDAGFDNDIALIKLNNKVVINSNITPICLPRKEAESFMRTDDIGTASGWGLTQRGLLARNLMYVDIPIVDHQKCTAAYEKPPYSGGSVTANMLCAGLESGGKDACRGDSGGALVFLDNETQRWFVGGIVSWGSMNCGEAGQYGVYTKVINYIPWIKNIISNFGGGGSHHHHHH
The test is described as follows: ELISA, antigen coated 20 ng/well. How it is done:
as §1

The target of test [3] is T3, MASP2-CCP1/2-SP-RKSA (human, UniProt O00187 298-686). The test is described as follows: ELISA, antigen coated 20 ng/well. How it is done: as §1
T3 sequence (O00187 other isoform, or with tags, fused parts or gaps limits assumed): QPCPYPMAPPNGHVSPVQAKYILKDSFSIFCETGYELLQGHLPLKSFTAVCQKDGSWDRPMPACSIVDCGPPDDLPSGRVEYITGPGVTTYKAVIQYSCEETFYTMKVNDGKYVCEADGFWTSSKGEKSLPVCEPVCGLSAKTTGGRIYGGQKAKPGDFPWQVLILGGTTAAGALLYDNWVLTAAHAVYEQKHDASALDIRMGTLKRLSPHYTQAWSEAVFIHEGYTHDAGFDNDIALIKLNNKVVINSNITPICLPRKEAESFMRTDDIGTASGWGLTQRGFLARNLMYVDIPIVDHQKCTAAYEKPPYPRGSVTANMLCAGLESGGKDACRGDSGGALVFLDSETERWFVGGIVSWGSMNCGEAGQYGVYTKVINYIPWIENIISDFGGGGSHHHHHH
(§2) The smaller the EC₅₀ and the larger the Top, the stronger the binding effect is.

Test [4] addresses T4, MASP2-CCP1/2-SP-RQ (human, UniProt O00187 298-686). The test can be described thus: ELISA, antigen coated 20 ng/well. How it is done:
as §1, §2

The target of test [5] is T3, MASP2-CCP1/2-SP-RKSA. The test is described as follows: SPR, Biacore 8K, antibody captured on Protein A/G chip, antigen as analyte. An excerpt: (§3) Here, the affinity between the above antibodies and MASP2-CCP1/2-SP-RKSA or MASP2-CCP1/2-SP-RQ was detected by Biacore 8K (GE healthcare). On Biacore 8K, a chip conjugated with Protein A/G was used to capture various antibodies, and then the above two recombinations were used as analytes (Analyte) to flow through the chip to obtain the binding-dissociation curve, and regeneration buffer was used to regenerate the chip and proceed to the next cycle; Biacore 8K Evaluation Software was used to analyze the data.
In general terms: In SPR one partner is held on a chip, and binding of the other changes the refractive index at the surface.

Test [6] concerns the target T4, MASP2-CCP1/2-SP-RQ. The test is described as above.
Text: as §3

The next test addresses T5, MASP2-SP-RQSA (human, UniProt O00187 445-686, limits assumed).
T5 construct: also called SP domain of MASP-2
The test can be described thus: ELISA, plate coated with MASP2-SP-RQSA (20 ng/well), HRP goat anti-human Fc, OD450. Here is the method: as §1

The target of another test is T6, MASP1-CCP1/2-SP-RQSA (human, UniProt P48740 299-699).
T6 construct: also called human MASP-1; human MASP1-CCP1/2-SP-RQSA
T6 chain: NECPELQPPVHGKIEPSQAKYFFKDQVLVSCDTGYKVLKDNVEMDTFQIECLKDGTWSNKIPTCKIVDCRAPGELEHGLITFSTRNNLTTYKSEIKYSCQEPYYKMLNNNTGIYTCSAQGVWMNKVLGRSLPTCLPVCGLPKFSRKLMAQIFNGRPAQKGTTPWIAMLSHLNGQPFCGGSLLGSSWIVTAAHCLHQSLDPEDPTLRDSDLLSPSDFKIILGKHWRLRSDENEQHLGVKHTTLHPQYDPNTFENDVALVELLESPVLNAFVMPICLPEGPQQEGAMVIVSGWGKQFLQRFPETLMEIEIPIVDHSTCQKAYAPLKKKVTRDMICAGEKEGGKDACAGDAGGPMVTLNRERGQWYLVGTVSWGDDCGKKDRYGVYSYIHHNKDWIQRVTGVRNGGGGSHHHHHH
The test can be described thus: ELISA, plate coated with MASP1-CCP1/2-SP-RQSA (20 ng/well), HRP goat anti-human Fc, OD450. Here is the method:
as §1

A further test deals with T7, MASP3-CCP1/2-SP-RQSA (human).
T7 construct: also called human MASP-3; human MASP3-CCP1/2-SP-RQSA
T7 chain: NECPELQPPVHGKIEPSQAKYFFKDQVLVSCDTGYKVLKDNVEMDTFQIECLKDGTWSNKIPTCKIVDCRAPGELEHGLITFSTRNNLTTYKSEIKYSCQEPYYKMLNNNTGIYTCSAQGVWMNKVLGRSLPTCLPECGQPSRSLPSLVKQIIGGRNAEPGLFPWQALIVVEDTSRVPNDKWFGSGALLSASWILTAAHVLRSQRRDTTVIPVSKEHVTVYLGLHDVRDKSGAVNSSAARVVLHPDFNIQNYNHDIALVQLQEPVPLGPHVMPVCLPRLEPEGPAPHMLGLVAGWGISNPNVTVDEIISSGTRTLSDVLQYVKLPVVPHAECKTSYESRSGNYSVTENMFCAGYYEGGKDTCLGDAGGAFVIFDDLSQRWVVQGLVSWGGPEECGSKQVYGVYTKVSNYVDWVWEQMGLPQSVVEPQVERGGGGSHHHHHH
The test is described as follows: ELISA, plate coated with MASP3-CCP1/2-SP-RQSA (20 ng/well), HRP goat anti-human Fc, OD450. Here is the method:
as §1

T4 sequence (O00187 other isoform, or with tags, fused parts or gaps limits assumed): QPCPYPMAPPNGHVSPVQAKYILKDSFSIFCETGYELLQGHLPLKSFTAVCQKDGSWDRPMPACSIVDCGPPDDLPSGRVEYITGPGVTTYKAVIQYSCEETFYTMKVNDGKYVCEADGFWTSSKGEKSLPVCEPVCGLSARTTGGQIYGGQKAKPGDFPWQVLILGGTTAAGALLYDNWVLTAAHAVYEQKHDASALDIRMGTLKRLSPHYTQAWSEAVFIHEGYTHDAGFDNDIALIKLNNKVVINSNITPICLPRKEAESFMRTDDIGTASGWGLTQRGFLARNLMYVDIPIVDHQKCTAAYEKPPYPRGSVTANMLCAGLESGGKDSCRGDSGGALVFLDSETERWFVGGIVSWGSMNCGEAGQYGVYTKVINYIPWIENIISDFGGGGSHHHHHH
Chain of Rat MASP2-CCP1/2-SP-RQSA (Q9JJS8 other isoform, or with tags, fused parts or gaps limits assumed): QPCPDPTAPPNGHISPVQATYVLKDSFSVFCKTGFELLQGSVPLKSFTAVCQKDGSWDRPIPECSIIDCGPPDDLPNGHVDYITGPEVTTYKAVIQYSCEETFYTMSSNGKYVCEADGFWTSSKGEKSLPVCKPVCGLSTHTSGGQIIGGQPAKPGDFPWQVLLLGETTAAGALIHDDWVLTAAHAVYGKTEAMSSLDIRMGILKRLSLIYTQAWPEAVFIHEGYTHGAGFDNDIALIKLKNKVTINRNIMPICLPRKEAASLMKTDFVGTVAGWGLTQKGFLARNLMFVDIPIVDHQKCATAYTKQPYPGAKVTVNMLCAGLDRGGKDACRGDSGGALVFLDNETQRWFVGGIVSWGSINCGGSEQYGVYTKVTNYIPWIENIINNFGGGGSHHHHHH
Chain of Human MASP-2 (O00187 16-686 limits assumed): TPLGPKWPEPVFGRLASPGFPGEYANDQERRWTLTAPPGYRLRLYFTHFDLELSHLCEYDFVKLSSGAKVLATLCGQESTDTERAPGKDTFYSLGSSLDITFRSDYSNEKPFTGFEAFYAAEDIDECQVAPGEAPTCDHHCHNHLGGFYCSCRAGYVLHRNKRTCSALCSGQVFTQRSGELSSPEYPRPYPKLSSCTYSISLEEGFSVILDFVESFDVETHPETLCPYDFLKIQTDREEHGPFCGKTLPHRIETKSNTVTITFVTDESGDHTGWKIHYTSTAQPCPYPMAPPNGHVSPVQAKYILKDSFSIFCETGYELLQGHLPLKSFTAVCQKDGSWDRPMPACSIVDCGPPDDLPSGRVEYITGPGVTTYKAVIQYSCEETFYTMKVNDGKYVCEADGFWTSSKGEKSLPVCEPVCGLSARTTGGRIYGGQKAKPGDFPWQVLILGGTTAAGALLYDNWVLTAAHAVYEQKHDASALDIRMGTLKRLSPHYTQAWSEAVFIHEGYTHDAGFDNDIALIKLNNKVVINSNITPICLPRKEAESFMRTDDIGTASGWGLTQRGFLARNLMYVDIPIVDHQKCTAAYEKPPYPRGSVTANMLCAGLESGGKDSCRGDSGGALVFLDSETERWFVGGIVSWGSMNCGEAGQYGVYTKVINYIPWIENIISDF
Chain of Mouse MASP2-CCP1/2-SP-RQSA (Q91WP0 other isoform, or with tags, fused parts or gaps limits assumed): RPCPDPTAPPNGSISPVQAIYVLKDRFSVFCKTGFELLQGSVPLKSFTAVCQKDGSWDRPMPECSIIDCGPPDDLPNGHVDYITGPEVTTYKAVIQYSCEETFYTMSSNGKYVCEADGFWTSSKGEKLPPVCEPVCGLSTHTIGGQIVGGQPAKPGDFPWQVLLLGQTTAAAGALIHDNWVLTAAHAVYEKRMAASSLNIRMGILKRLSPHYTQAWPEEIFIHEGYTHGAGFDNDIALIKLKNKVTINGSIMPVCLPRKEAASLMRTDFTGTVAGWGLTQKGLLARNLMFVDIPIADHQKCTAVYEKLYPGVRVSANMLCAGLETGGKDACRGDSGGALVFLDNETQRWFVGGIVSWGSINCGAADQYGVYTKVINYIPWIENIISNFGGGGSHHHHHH
T1 sequence (O00187 other isoform, or with tags, fused parts or gaps limits assumed): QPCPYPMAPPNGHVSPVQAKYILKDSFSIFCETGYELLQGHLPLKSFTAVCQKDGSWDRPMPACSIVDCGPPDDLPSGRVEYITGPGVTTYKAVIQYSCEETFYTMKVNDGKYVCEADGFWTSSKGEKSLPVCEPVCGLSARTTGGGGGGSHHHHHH
T5 sequence (O00187 other isoform, or with tags, fused parts or gaps limits assumed): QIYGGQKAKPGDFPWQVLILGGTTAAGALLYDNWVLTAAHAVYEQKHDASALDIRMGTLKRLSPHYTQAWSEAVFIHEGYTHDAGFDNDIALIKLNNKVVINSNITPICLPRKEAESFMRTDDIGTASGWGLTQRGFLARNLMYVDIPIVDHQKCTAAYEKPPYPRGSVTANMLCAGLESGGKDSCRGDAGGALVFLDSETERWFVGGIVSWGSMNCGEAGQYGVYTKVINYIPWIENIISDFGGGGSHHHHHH

B1: 169-IgG4 (antibody, V domains shown)
VH: QVQLQESGPGLVKPSETLSLTCTVSGGSISSSSYYWGWIRQPPGKGLEWIGSIYYSGSTYYNPSLKSRVTISVDTSKNQFSLKLSSVTAADTAVYYCARDRRGRFDPWGQGTMVTVSS
VL: SYELMQPPSMSVSPGQTASITCSGDKLGDIYAYWYQQKPGQSPVLVIYQDNKRPSGIPERFSGSNSGNTATLTISGTQAMDEADYYCQAWESSTGVFGGGTKLTVLG
notes: expressed in HEK293F; also called preferred antibody
For orientation: EC50 means the midpoint of the concentration-response curve. Low values mean an effect from little substance, high ones a need for much substance. In general, Kd refers to the constant that tells how readily two partners part at equilibrium. As a reminder, the koff is a measure of how fast the partners let go of each other. For orientation: kon means the rate constant with which the complex forms. Take B1: the “IC50 of C3 deposition on mannan-coated microplates (40 µg/ml mannan, 1% human plasma)” value with Human MASP-2 amounted to 88.8 pM. Further, in the test with Human MASP-2, the “IC50 of C3 deposition on mannan-coated microplates (100 µg/ml mannan, 1% human plasma)” value was 99.6 pM. The EC50 with MASP2-CCP1/2 was determined as 146 pM; in [1] it was 190 pM; in the test with Rat MASP2-CCP1/2-SP-RQSA, 231 pM; in test [2], 136 pM; in the test with MASP2-CCP1/2-SP-RKSA [3] it was 106 pM; with MASP2-CCP1/2-SP-RQ [4], 136 pM. In addition, the Kd amounted to 38600 pM in the test with MASP2-CCP1/2-SP-RKSA [5] and 4820 pM with MASP2-CCP1/2-SP-RQ [6]. Moreover, the values for the koff with MASP2-CCP1/2-SP-RKSA [5] and with MASP2-CCP1/2-SP-RQ [6] were 0.00382 s⁻¹ and 0.00361 s⁻¹, respectively. Also, the kon came out at 99200 M⁻¹ s⁻¹ in the test with MASP2-CCP1/2-SP-RKSA [5] and 750000 M⁻¹ s⁻¹ with MASP2-CCP1/2-SP-RQ [6]. The binding result with MASP2-SP-RQSA, with MASP1-CCP1/2-SP-RQSA and with MASP3-CCP1/2-SP-RQSA was “no binding (tested: 100 nM (Log(Ab nM) = 2))” each time.

B2: Narsoplimab (antibody, human IgG4 S228P, lambda, V domains shown)
VH: QVTLKESGPVLVKPTETLTLTCTVSGFSLSRGKMGVSWIRQPPGKALEWLAHIFSSDEKSYRTSLKSRLTISKDTSKNQVVLTMTNMDPVDTATYYCARIRRGGIDYWGQGTLVTVSS
VL: QPVLTQPPSLSVSPGQTASITCSGEKLGDKYAYWYQQKPGQSPVLVMYQDKQRPSGIPERFSGSNSGNTATLTISGTQAMDEADYYCQAWDSSTAVFGGGTKLTVLG
notes: also called positive control antibody; Control Narsoplimab
Regarding B2, the values for the EC50 (in [1]; with Rat MASP2-CCP1/2-SP-RQSA) were 169 pM and 455 pM, respectively. For the same molecule, the binding result with MASP3-CCP1/2-SP-RQSA is “no binding (tested: 100 nM (Log(Ab nM) = 2))”.
